No end group written: not given here.
Biological target: human PAC1 receptor with 3 hemagglutinin (HA) tags, expressed in Chinese Hamster Ovary (CHO) cells (human), P41586
Assay: cell-based or functional assay

Sequence of human PAC1 receptor with 3 hemagglutinin (HA) tags, expressed in Chinese Hamster Ovary (CHO) cells (human), P41586 (P41586 21-468): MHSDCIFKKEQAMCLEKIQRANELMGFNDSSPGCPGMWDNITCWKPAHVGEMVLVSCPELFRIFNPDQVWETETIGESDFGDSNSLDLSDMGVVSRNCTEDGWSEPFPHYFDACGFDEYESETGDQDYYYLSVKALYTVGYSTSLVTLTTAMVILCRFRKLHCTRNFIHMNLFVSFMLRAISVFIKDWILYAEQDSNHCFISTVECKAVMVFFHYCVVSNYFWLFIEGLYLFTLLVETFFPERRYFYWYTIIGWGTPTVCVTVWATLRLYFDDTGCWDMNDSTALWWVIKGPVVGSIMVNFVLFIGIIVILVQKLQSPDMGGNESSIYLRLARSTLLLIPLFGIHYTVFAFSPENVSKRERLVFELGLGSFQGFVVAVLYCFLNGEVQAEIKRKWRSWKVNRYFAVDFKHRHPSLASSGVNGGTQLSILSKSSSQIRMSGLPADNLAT

Binder FTDSYSRYRKQMAVKKYLAAVLGKRYKQRVKNY-NH2 [PACAP6-38] has an IC50 (nM), antagonist mode (variable concentration) versus 5 nM PACAP1-27, calcium flux (FLIPR), PAC1-CHO cells of over 333 nM, an IMax (%), antagonist mode (variable concentration) versus 5 nM PACAP1-27; ( )=% inhibition at highest concentration of 78.8% and a pA2 (nM), antagonist mode (fixed concentration), Gaddum/Schild EC50 shift of PACAP1-27 curves, calcium flux (FLIPR), PAC1-CHO cells of 201 nM.

HSDGIFTDSYSRYRKQMAVKKYLAAVL-NH2 [PACAP1-27] gave an EMax (%), calcium flux (FLIPR), agonist mode, PAC1-CHO cells of 100%.

Reference: US20200270318A1
